In the supplement of paper PMC10567573:

B1: MTMR15 (parent)
chain: YVKAKKSIDKDEEFAGSSPQSSKS

Variants of: B1
Assay: protein stability index of a GFP-peptide fusion (GPS, HEK-293T) (PSI 1-6); higher = more stable
Conditions: c terminus: a fixed tail appended
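Note: lentivirally expressed fusions sorted by FACS into six bins by GFP to DsRed ratio, PSI derived from sequencing read proportions per bin multiplied by bin number.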

Protein stability index: each site, then its substitutions
D11: I 2.57; C 2.71; F 2.48; E 2.85; K 2.64; G 2.88; L 2.46; A 2.83; H 2.92
D9: Q 2.76; T 2.91; H 3.27; R 3.05; I 2.73; Y 2.44; W 1.61; P 2.83; N 2.61; C 2.98; V 2.77; A 2.92; F 1.92; L 2.76; G 2.95; M 3.01; S 2.69; E 2.9; K 2.45
K5: F 2.44; M 2.6; E 4.21; C 2.74; H 2.8; D 4.22; Y 2.07; S 3.12; Q 3.83; L 2.15; V 3.47; I 2.29; T 3.31; R 2.73; W 1.6; A 3; G 2.9; P 2.31; N 3.62
I8: Y 2.99; V 2.97; C 2.83; H 3.28; Q 3.3; G 3.64; P 3.77; K 2.98; E 3.42; M 3.22; D 3.7; R 2.98; L 3.07; F 2.81; N 3.33; W 3.22; S 3.55; A 3.18; T 3.22
K6: T 3.5; A 2.98; E 3.95; D 3.87; H 3.26; M 3.16; I 2.67; W 2.7; F 3.02; L 2.55; S 2.84; V 2.64; N 3.25; Q 3.33; G 3.15; C 2.54; P 3.05; R 3.43; Y 2.78
K10: N 2.92; G 3.28; F 2.26; V 3.24; W 2.96; L 3.05; H 3.61; A 3.63; C 3.27; Q 2.67; I 3.21; M 3.36; P 3.55; S 3.25; D 3.42; E 3.26; Y 2.72; R 3.25; T 3.28
S7: Y 2.08; R 3.22; E 3.58; T 2.96; D 2.77; W 2.27; F 3.06; C 3.33; P 3.41; G 3.11; H 3.05; V 3.13; I 3.01; Q 2.91; N 2.98; L 2.85; A 3.15; K 3.38; M 3.33
A4: Y 3.55; G 3.42; W 1.8; H 3.51; E 3.54; Q 3.41; V 3.08; C 2.97; L 3.04; I 3.24; K 4.12; S 2.45; N 2.99; D 3.27; T 2.39; M 3.31; P 3.19; R 3.32; F 2.89
K3: C 3.3; Q 3.31; E 3.48; M 3.28; L 3.05; F 3.3; H 3.22; Y 2.61; I 3.38; G 2.27; P 2.04; S 2.76; V 3.85; D 3.96; N 3.52; A 2.87; R 2.4; T 2.84; W 3.1
V2: Y 5.39; Q 5.09; S 5.38; R 5.42; T 5.08; W 4.5
